Data reported in the supplement of paper PMC9170038.

The sequences below were run on K4 kissing-loop RNA reporter (assay: apparent KD of K4 kissing-loop reporter; higher = weaker reporter binding). Conditions: Eterna round: R107; input ligand: FMN 200 uM.
Method: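 RNA-MaP round R107: designed RNA switches with theophylline, tryptophan, arginine or FMN aptamers are transcribed on-chip within common flanks. They are titrated with a labelled K4 kissing-loop RNA reporter in RNA-MaP buffer (100 mM Tris pH 7.5, 80 mM KCl, 4 mM MgCl2), without ligand or with the indicated ligand. Median apparent KD per design.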
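Also: bound reporter read as fluorescence of individual clusters on recovered sequencing chips by microscopy, with normalized cluster intensities fitted with a binding model.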

Row | Sequence | apparent KD of K4 kissing-loop reporter
1 | CCAUUCUGUUACGAUACCAGUCAAAGAUAUUUGAUCAAUACCCUCGCCGAGUGAUGUUCGGACCCUUGGCAGCGUCUGGGACAGG [fdxxvmullin] | 1320 nM
2 | UGACUGGAUUGAAGGAGCGCUAAACUCCUAGUGAUGUUAGGGACACAAGACAAAGUCUUGAGGCAGGUAGGUCGCAAUCUAGUCU [FiskerMod 5 - Jieux - Same State - Arginine B] | 345 nM
3 | UUAGUACAUAGAGAUACCAGCCAUCGAAGUGAUGUUUCGAGAAAUAAUGAUGUUGGUAUAGGCCCUUGGCAGCUCUAUGUACAUU [AK1 Exc Theophylline B] | 103 nM
4 | CUUGAUCGAGGAAGGAGCGGGCCGUCAUUGAGCGCAGUGAUGUUGCGGUCGACUAGUCGAGCCCAGGUAGGUCGCCUGGAGUAAG [Xeveis] | 202 nM
5 | GGACAAGUUUCCGAUACCAGCCUUUAUGCUGGACUAGCUUGAUCAGUGGCUAGUGAUGUUGGCCCUUGGCAGCGGGACUCUUCGG [theeternabot_exclusion_KL_Theo_B_10] | 221 nM
6 | AAUGUACAGGGAAGGAGCGUCGUCCAGUGAUGUUGGAGUUAAAUACCAGUGAUGUUGGUUAGACAGGUAGGUCGCCCUAAAGUGC [Exclusion Arginine B Gf 3] | 104 nM
7 | AGGUUUUGAUUAGGAUAUGCACUGACGACGAGAAUAUAGUGAUGUUAUAUAAUAGGAAUUAGUAGAGUAGAAGGGAUUGAGGUUU [SSFMNB.W] | 261 nM
8 | ACUACGAAGACGGCCGCCACUGAUAUUCGUAGAUCCAUCAUUACAUGAGUGAUGUUCAUGUAUAUCAGGACCGGGUCAAGAUGGU [KL-XTryp-B17 #analogue] | 184 nM
9 | UUGUUUCCGACGGCCGCCACUGGUUUCUUUGUUGUAGUGAUGUUGCGGUGGAAUGAUAGCGUUAACAGGACCGGGUCGGUGAGAC [theeternabot_sameState_KL_Trp_B_42] | 1280 nM
10 | AUGGGUUUGGGAGGAUAUCCUUCCCACGUCGAAGUACCGUGCUUGAUGGAGUGAUGUUCGAUCAGAGGAGAAGGCCCGGAUUUAU [Same State FMN B GF21] | 754 nM
11 | AGACCACAAAGUGGUCAGUGUUCGCUCCGGCGAGGACCGGUACGGCCGCCACUCGCGAGUGAUGUUCGCGAGCGGAGCGAACACA [Omei KL Tryp A Exc A v2] | 101 nM
12 | AAUUAAUACAGAAGGAGCGUGAAAUUAUCUAUUUUUUUUUUAGCUAGUGAUGUUAGCAUUUCACAGGUAGGUCGCUGUAUAUUUA [JR_SSArginiB_Sub009] | 148 nM
13 | CGCGUGGGUUUGAGAGGGUUUGUGCGAAGUGAGGAUAUUUAGGGAGAAAGAAGGCACUAUAAAAUAUAGUGAUGUUAUAUAAGGG [SSFMNA.K] | 295 nM
14 | AAAAUUGCGGUCGAAUUAACUUCUUGCAUACGAGGACCGGUACGGCCGCCACUCGAGUCAAGUGAUGUUUGAUAAUCUAUUAUUA [JR_ExcTryptoA_Sub011] | 190 nM
15 | UGGGUGUAGUGAUGUUAUAUAGAGAGUGAUACCAGCGUAGAGAGAUGCCCUUGGCAGCAUAGAAGAGUAUCAUUGGAGGAGGAGG [ExTheophyl.Az] | 689 nM
16 | CGCGCUGGUUGAGAGGUUGGCGCGAAUGAUACCAGUAUAUAAGAAUACCCUUGGCAGCAUAAGAAAGAUAUAGUGAUGUUGUAUA [SSTheophA.H] | 592 nM
17 | UUCUAGCCGAAAGGCUAGUCGGCUUCAGAUACCAGUCGCGAAAGCGACCCUUGGCAGCUGUGUAGUGAUGUUGCAAAGAAAGCCG | 556 nM
18 | ACAUGAGUGAUGUUCAUGUGGAGCAGGGUACGAGGACCGGUACGGCCGCCACUCGAGAGUUAUGACGAGUUAAUGGCAACGAUGU [KL-Tryp-A8 #analogue] | 122 nM
19 | UUGCAAAAGUCGGCCGCCACUCCGGGCCCUAUAAAUGGGCGCAGUGAUGUUGCGGCUAGGCCUCUGAGGACCGGGACUUUGUAGC [Aenonlebe] | 79 nM
20 | UGACUGGACUGAAGGAGCGAGCGAGACAAAGUCUCGAAAUCCUAGUGAUGUUAGGAAAUAACUCAGGUAGGUCGCAGUCUAGUCU [ArgBS 9 #SwitchBubble #StaticStem] | 181 nM
21 | GUGGUACAGGCGGCCGCCACUAGUGAUGUUAGUGAUAGAAGAUAUAGUAUAUAUCGGCAUUUAGUUAGGACCGGGCCUGGUGGUG [wwwrcmullin] | 424 nM
22 | CGGCUCAAUCCUAGUAUUAAGAGGGAGUUGCGAGGACCGGUACGGCCGCCACUCGAAGUAGUUUGGCCAGUGAUGUUGGUCUUAC [Mabeleon] | 203 nM

Row | Sequence | apparent KD of K4 kissing-loop reporter
23 | AAGUGAUGUUGUAGUGAUGUUGUGAUGUUGCAGGAUAUAUAGUGAUGUAGAAGGGUAAGUACUUAUUUUUUUUUUGAGUUAUGUU [crrczrmullin] | 85.5 nM
24 | UCGUCCGGAUUACUCGUGGUCAUGGUCGAUACCAGUAGAUUAAUCUACCCUUGGCAGCGACAUGAGUGAUGUUCAUGUGCAAUGA [KL-XTheo-A6 #analogue] | 383 nM
25 | GGGAGUAGUGCGGCCGCCACUGAGAAAGAAGAAGAAUAUAGUGAUGUUAUAUAGGAAAGGAAGAACAGGACCGGGCAUUAGAUUU [SSTRyptB.F] | 232 nM
26 | AGGCGACGCAAAGGAUAUCACGGUUUUCUAGUGAUGUUAGUCAAGACCGACCGAGAAAUCAGUGUUUGAGAAGGUUGAACGUCGC [theeternabot_sameState_KL_FMN_B_46] | 496 nM
27 | AAGCAGUCACGCGAAGCCAUCGAAGAUGGUCGAGGACCGGUACGGCCGCCACUCGGAGUGAUGUUCCGAAGACUGCAAAAUAAAA | 326 nM
28 | AAGCAGUCACUCGAAUCCAUCGAAGAUGGACGAGGACCGGUACGGCCGCCACUCGGAGUGAUGUUCCGAAGACUGCAAAAUAAAA | 306 nM
29 | ACCUGUGACUGAAGGAGCGUCUACUCCAGAGGAUGGAGUGAUGUUCCACUUUAAUGGAGUGGACAGGUAGGUCGCAGUCAUAGGA [Arg B SS t6] | 126 nM
30 | CCUUGGGCACGCCCACUAGGAAGCUAGUCUAAGGAUAUCGACUGGACGAGAAGGUAGACGGACCCGAGUGAUGUUCGGACAUAGG [theeternabot_sameState_KL_FMN_A_1] | 469 nM
31 | UCGGACCCUGGAGGAUAUGAGUCGAGUGAUGUUCGGCGGUCCAUGCCGGUGCGGCGUUAUGCCCUUUUAGAAGGCCAGGGUCCGA [#2 Exclusion - FMN B Attempt #11 (HarryS)] | 277 nM
32 | GGUAGCGCUAGAGAUACCAGUCAUAUCGCUCUGGAGUGAUGUUCCGGAACGUGCGGAGAAGACCCUUGGCAGCUCAUGACGGUGU [Exclusion Theophylline B GF 4] | 210 nM
33 | UAUUGAUUGUCAGGAUAUCGUAAACGAGUGAUGUUCGUAUAUUGACGAUAGUCAAUUCUAUCUGAACGAGAAGGGACAUUAUUUA [JR_SSFMNB_Sub009] | 318 nM
34 | AUUUUUUACAGAAGGAGCGUGUUUUUAUAAUCAUUUAUCUUAGCGAGUGAUGUUCGCUUUACACAGGUAGGUCGCUGUUUAUUUA [JR_Nu_ExcArginiB_Sub028] | 119 nM
35 | UGUGCUGUGUACUGUAAUGUUAUGCGGGAUACCAGAGUCUUUUUAUUCCCUUGGCAGCUUGAGUGAUGUUUGAUGCUGUUCUUGU [kiokmullin] | 362 nM
36 | AACUGCCAAGGAACAUUGUAAGAAGGUGAUACCAGCAUCGAAAGAUGCCCUUGGCAGCACCAACUUGCAGUGAUGUUGCAAGUAA [Design5] | 183 nM
37 | GGGACGCUAGCUCGAAUGUAGUGAUUUGAUACCAGCCUGUCACUUGGCCCUUGGCAGCAAAGCAGAGUGAUGUUCUGACCAACCU [theeternabot_sameState_KL_Theo_A_47] | 189 nM
38 | GGUGCUGUCUGUGCCGCCUUCCUCGUUCCUCGAGGACCGGUACGGCCGCCACUCGAGUGAUGUUUGGGUAGCGAUCCCUGCUAGC [Bdazzled - #15 Exc. Tryptophan A] | 1010 nM
39 | UGUGUUUACCUGACCCAGUGAUGUUGGGAAGGAGCGUGCGAAAGCACAGGUAGGUCGCUCAACCUAAAGUCAGGUGAGCACUAAA [#SwitchBubble 9 #K4Early] | 407 nM
40 | CUCGAGUGAUGUUCGUUUAUUUAUACAGAUACCAGUGAAUUUUAACACCCUUGGCAGCUGGUUGUAUCUUUGUUUUUUACACAAG [JR_Nu_ExcTheophyA_Sub024] | 191 nM
41 | UGUGUUUACCUGACUCAGUGAUGUUGAGAAGGAGCGUGAGAAAGCACAGGUAGGUCGCUCAACCUAAAUUCAGGUGAGCACUAAA | 241 nM
42 | GACGGGCAGUGAUGUUGCCGGUCUCUUGGACGAGGACCGGUACGGCCGCCACUCGAUCUGAUGCGGGAAUUGCAUCUUUUAAUAA [Raorbirabe] | 237 nM
43 | GCUACCUAUGCAGGAUAUGGUAUUACGAGUGAUGUUCGAGGCAUAUAGAGUGAUGUUCUAUAUCCACCAGAAGGGCAUAGGUAGC | 184 nM
44 | GUAGCACUCGGUAGUGAUGUUAUCGAGGACAAGGAUAUCAUCUCAAUGAGAAGGUGUCCUUGAUAACAGCUACGGGAAUAUCCCA [Omei KL FMN A Exc D v4] | 386 nM

Same assay, conditions: Eterna round: R107; input ligand: arginine 13.2 mM

Row | Sequence | apparent KD of K4 kissing-loop reporter
45 | CCAUUCUGUUACGAUACCAGUCAAAGAUAUUUGAUCAAUACCCUCGCCGAGUGAUGUUCGGACCCUUGGCAGCGUCUGGGACAGG [fdxxvmullin] | 437 nM
46 | UGACUGGAUUGAAGGAGCGCUAAACUCCUAGUGAUGUUAGGGACACAAGACAAAGUCUUGAGGCAGGUAGGUCGCAAUCUAGUCU [FiskerMod 5 - Jieux - Same State - Arginine B] | 253 nM
47 | UUAGUACAUAGAGAUACCAGCCAUCGAAGUGAUGUUUCGAGAAAUAAUGAUGUUGGUAUAGGCCCUUGGCAGCUCUAUGUACAUU [AK1 Exc Theophylline B] | 95.4 nM
48 | CUUGAUCGAGGAAGGAGCGGGCCGUCAUUGAGCGCAGUGAUGUUGCGGUCGACUAGUCGAGCCCAGGUAGGUCGCCUGGAGUAAG [Xeveis] | 159 nM
49 | GGACAAGUUUCCGAUACCAGCCUUUAUGCUGGACUAGCUUGAUCAGUGGCUAGUGAUGUUGGCCCUUGGCAGCGGGACUCUUCGG [theeternabot_exclusion_KL_Theo_B_10] | 204 nM
50 | AAUGUACAGGGAAGGAGCGUCGUCCAGUGAUGUUGGAGUUAAAUACCAGUGAUGUUGGUUAGACAGGUAGGUCGCCCUAAAGUGC [Exclusion Arginine B Gf 3] | 80.2 nM
51 | AGGUUUUGAUUAGGAUAUGCACUGACGACGAGAAUAUAGUGAUGUUAUAUAAUAGGAAUUAGUAGAGUAGAAGGGAUUGAGGUUU [SSFMNB.W] | 168 nM
52 | ACUACGAAGACGGCCGCCACUGAUAUUCGUAGAUCCAUCAUUACAUGAGUGAUGUUCAUGUAUAUCAGGACCGGGUCAAGAUGGU [KL-XTryp-B17 #analogue] | 146 nM
53 | UUGUUUCCGACGGCCGCCACUGGUUUCUUUGUUGUAGUGAUGUUGCGGUGGAAUGAUAGCGUUAACAGGACCGGGUCGGUGAGAC [theeternabot_sameState_KL_Trp_B_42] | 547 nM
54 | AUGGGUUUGGGAGGAUAUCCUUCCCACGUCGAAGUACCGUGCUUGAUGGAGUGAUGUUCGAUCAGAGGAGAAGGCCCGGAUUUAU [Same State FMN B GF21] | 612 nM
55 | AGACCACAAAGUGGUCAGUGUUCGCUCCGGCGAGGACCGGUACGGCCGCCACUCGCGAGUGAUGUUCGCGAGCGGAGCGAACACA [Omei KL Tryp A Exc A v2] | 86.6 nM
